Experiment: yeast display, Sf9 membrane polyspecificity reagent, FACS + sequencing; frameworks hold sequencing errors
How it was run: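 After 36–48 hours of galactose induction, yeast (Saccharomyces cerevisiae BJ5465) displaying a synthetic nanobody library were stained at 4 °C for 1 hour with 10% biotinylated, detergent-solubilized Sf9 membrane reagent. Streptavidin microbeads enriched the stained cells before FACS sorting into low and high (top ~1%) gates on anti-HA and streptavidin fluorescence. Each clone's polyreactivity label reflects its gate of origin.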

Sequence: QVQLVESGVGLVQARGSLRLSCAASGITFNYYAMGWYRQAPGKESELVATINRSGGTTYYADSVKGRFTISRDKAKNTDYLQMNSLKQEDTAVYDCNARYTSLGRYHSGYEYWGQGTQVTVSS
- polyreactivity (PSR sort gate): high polyreactivity

Sequence: QVQLVESGVGLVQARGSLRLSCAASGSIFRRNAMGWYRQAHGKERELVAAISASGGRTYADSVKGRFTISRDNSKNTVYFQMKSLNPEDKAVYYCAARCYCSSRFDYWGLGTQVTVSS
- polyreactivity (PSR sort gate): high polyreactivity

Sequence: QVQLVESGVGLVQGGGSLRLTCPASGFTFDWYAMGWYRPAPGKERELVAAISSSGTSTYYADSVKGRFTISRDTAKNTVYLQMNSLKPEDTAVYYCAARWYYVTPLRRYCYWGQGTQVTVSS
- polyreactivity (PSR sort gate): high polyreactivity

Sequence: QVQLVESGVGLVQSGGSLRLSCAASGRISAQYTMGWYRQAPGIERELFAAITWSGTNTYYADSVKGRFTISRDNAKNTVYLQFNSLKPEDTAVYYCATAVYLVIFEYDYWGQGTHVTVSS
- polyreactivity (PSR sort gate): low polyreactivity

Sequence: QVQLVESGVGVVQAGGSLRLSCAASGRTFLRYTMGGYRQAPGKEREFVAAISYDTSSTYYADSVKGRFTISRDNAKNTVYLQMNSLKPEDTAVYYCAATLSRVSLSYGYWGLGTQVTVSS
- polyreactivity (PSR sort gate): low polyreactivity

Sequence: QVQLVESGVRLVQAGGSHRLSCAANGFIFRRYAMGWYIQAPGKERELVAAITRSGGTTYYADSVKGRFTISRDNAKNTVYFQLNSLKPEDTAVYYCDARRPYTYDSGDILEMDHWGQGTQVTVSS
- polyreactivity (PSR sort gate): high polyreactivity

Sequence: QVQLVESGVVLDQAGGILRLSCAASGFIFARYDMGWYRQAPGKERELVATISYTGGRTYYADSVKGRFTISRDNAKNTVYLQMNSLKPEDTAVYYCAAVVQSSEPVEYDYWGQGTQVTVSS
- polyreactivity (PSR sort gate): high polyreactivity

Sequence: QVQLVESRGGIVQAGGSLRLSCAASGSIFEQYAMGLYRQAPGKERELVAAISKRGTSTNYADSVKGRVTISRDNAKNTVYLQMNSLKPEDTAVYYCNADSRHRRNYDYWGQGTHVTVSS
- polyreactivity (PSR sort gate): high polyreactivity

Sequence: QVQLVESRGGIVQAGGSLRLTCAASGRTFRSKVMGWYRQAQGKERELVADITYSGGNTYYADSVKGRFTISRDNAKNTDYLQMNSLKPEDNAVYYCATGWSWWTFDYWGQGTQVTVSS
- polyreactivity (PSR sort gate): high polyreactivity

Sequence: QVQLVESRGGLDQAGGSLRLSCAASGSIFGFYAMGWYRQAPGKERELVAAISSDGGSTYYADSVKGRFTISRDNAKNTVYLQMNSLKPEDTAVYYCAAAHGSIFDSTYYEYYYWGQGTQVTVSS
- polyreactivity (PSR sort gate): low polyreactivity

Sequence: QVQLVESRGGLVHAGGSLGLSCAASGSTFGVNAMGWYRQAPGKERELVASISSGGGTYYADSVKGRFTISRDNSKNTVYLQMNSLKPEDTAVYYCAAVYYWYDSYAGYDYWGQGTQVTVSS
- polyreactivity (PSR sort gate): low polyreactivity

Sequence: QVQLVESRGGLVQAGCSLRLSSAASGLIFYFYTMGWYRQAPGKERELVDSIRSGDSTNYADSVKGRFTISRDNAKNTVYLQMNSLKPEDTAVYYCNARYRYPYYLSVAEKYDYWGQGTQVTVSS
- polyreactivity (PSR sort gate): high polyreactivity

Sequence: QVQLVESRGGLVQAGGRLRLSCAASGLIFYKYAMGWYRPAHGKERQLVAAITSGGGSTYYADSVKGRFTISRDNAKNTVYLQKNSLKPEDSAVYYCAATRPATYAAYDYWGHGTQVTVSS
- polyreactivity (PSR sort gate): high polyreactivity

Sequence: QVQLVESRGGLVQAGGSLLLSCAASGIIFRYYTMGWYRQAPGKERELVAAIERSGGNTYYADSVKGRFTISRDNAKNTVYLQMNSLKPEDTAVYYCAARYATWYFRRGRKTSDYDYWGQGTQVTVSS
- polyreactivity (PSR sort gate): high polyreactivity

Sequence: QVQLVESRGGLVQAGGSLRLRCAASGYIYYQYAMGWSRHAPGKETALVGAISLSGGMTYYADSVKGRFTISRDNAKNTVYLQMNSLKPEETGVYFCNAQSRVWCKVYYWGQGTQVTVSS
- polyreactivity (PSR sort gate): high polyreactivity

Sequence: QVQLVESRGGLVQAGGSLRLSCAASAFTFDYYVMGWYIQAPGKERELVAAISLRSGRTYYADSVKGRFTISRDNAKNTVYLQMNSLKPEDTAVYYCAAESRGVGAYYYWGQGTQLTVSS
- polyreactivity (PSR sort gate): high polyreactivity

Sequence: QVQLVESRGGLVQAGGSLRLSCAASGFTFRAYAMGWYREAPGKERELVAAISTGGGSTYYADSVKGRFTISRDNAKITVYFQMNSLKPEDTAVYYCNALPQRRYYYWGQGTHVTVSS
- polyreactivity (PSR sort gate): high polyreactivity

Sequence: QVQLVESRGGLVQAGGSLRLSCAASGFTFSAYAMGWYRQAPGKERELVAAISWSGSRTYYADSVKGRFTISRDNAKNTVYLQMNSQKPEDTAVYYCAKEPYDTFGFYDYDYWGQGTQVTVSS
- polyreactivity (PSR sort gate): low polyreactivity

Sequence: QVQLVESRGGLVQAGGSLRLSCAASGFTFYKYAMGCYRQAPGKERELVAAITGSGGSTYYADSVKGRFTISRDNAKNTVYLQMNSLKPEDTAVYYCATRYPTYYGYHKFDYWGQGTQVTVSS
- polyreactivity (PSR sort gate): high polyreactivity

Sequence: QVQLVESRGGLVQAGGSLRLSCAASGFTFYYYAMGWYRQAPGKERELVAAISGRGGSTYYADSVKGRFTISRDNAKNSVYLQMNSLKPEDTAVYYCAAVPIVRLEYWGQGTQVTVSS
- polyreactivity (PSR sort gate): high polyreactivity

Sequence: QVQLVESRGGLVQAGGSLRLSCAASGIIFQSYTMGWYRQAPGKERELVAAISTSGSTYYADSVKGRFTISRDNAKNTVYLQMNSLKPEDTAVYYCATYRYRIWWWGEYDYWGQGTQVTVSS
- polyreactivity (PSR sort gate): high polyreactivity

Sequence: QVQLVESRGGLVQAGGSLRLSCAASGNTFYGYAMGWYRPAPGKERELVASITLSGDSTYYADSVKGRFTISRDNAKNTVYLQMNSLKPEDTAVYYCAGVYTYPLGYYHYTYDYWGQGTQVTVSS
- polyreactivity (PSR sort gate): low polyreactivity

Sequence: QVQLVESRGGLVQAGGSLRLSCAASGPTFRNTAMGWSRQAPGKDREFVAVISNTGGSTYYADSVKGRFTISRDNAKNTVYLQMNSLKAEDTAVYYCGVRPRYSQYYYWGQGTQVTVSS
- polyreactivity (PSR sort gate): high polyreactivity

Sequence: QVQLVESRGGLVQAGGSLRLSCAASGRIFGLYAMGWYRQAPGKERELVAAYADSVKGRFTISRDNAKNTVYLKMNCLKPEDTAVYYCAKGPLYAGYSIDLRDFNYWGQGTQVNVSS
- polyreactivity (PSR sort gate): low polyreactivity

Sequence: QVQLVESRGGLVQAGGSLRLSCAASGRIFGTNAMGWYRQAPGRERELVATITRGGGNTYYADSVKGRFTISRDIAKNTVYLQMNSLKPEDTAVYYCAAKFHRFAWYSHYDYWGHGTQVTVSS
- polyreactivity (PSR sort gate): low polyreactivity

Sequence: QVQLVESRGGLVQAGGSLRLSCAASGRIFHYYVMGWYRQAPGKERELVARITFNGGGTYYADSVKGRFTISRDIAKNTVYLQMNRLKPEDTAVYYCNARYPWRDWEDDYWGQGTQVTVSS
- polyreactivity (PSR sort gate): low polyreactivity

Sequence: QVQLVESRGGLVQAGGSLRLSCAASGRIILIYAMGWYRQAPGKERELVGDISKGGSSTYYADSVKGRVTISRDNAQNTVYLQMNSLKPEDTAVYYCAASGRWTGRQAAYDYWGQGTQVTVSS
- polyreactivity (PSR sort gate): high polyreactivity

Sequence: QVQLVESRGGLVQAGGSLRLSCAASGRIIPSYMGWYRQAPGKQRELVARISNTGSTYYADSVKGRFTISRDNAKNTVYLQMNRLKPEDTAVYYCAAVYIFRVFSHPPYDYWGQGTQVTVST
- polyreactivity (PSR sort gate): low polyreactivity

Sequence: QVQLVESRGGLVQAGGSLRLSCAASGRIYSVYDMGWYRQAPGKESEFVAAIRSSGDSTYYADSVKGRFTISRDNAKNTVYLQMNSLKPDDTAVYYCAADVYRYRVRGLNYWGQGTQVTVSS
- polyreactivity (PSR sort gate): high polyreactivity

Sequence: QVQLVESRGGLVQAGGSLRLSCAASGRLFYSYAMGWNRQEPGKEREFVAAISRSGARTYYADSVKGRFTISRDNAKNTVYLQMNSLKPEDTAVYYCAADDFSTVEYDYWGQGTQVTVSS
- polyreactivity (PSR sort gate): low polyreactivity

Sequence: QVQLVESRGGLVQAGGSLRLSCAASGRTFLGYAMGWYRQAPGKERELVAAISYSGSSTYYADSVKGRFTISRDNAKNTVYLQMNSLKPEDTAVYYCAAQFYFLFDYWGQGTQVTVSS
- polyreactivity (PSR sort gate): low polyreactivity

Sequence: QVQLVESRGGLVQAGGSLRLSCAASGSICYRYAMGWYRQAPGKERELVAAISYSGGSTYYADSVKGRFTISRDNAKNTVYLQMKSLKPEDTAVYYCAKDYPPPISDYSRYYGYGYWGQGTQVTVSS
- polyreactivity (PSR sort gate): low polyreactivity

Sequence: QVQLVESRGGLVQAGGSLRLSCAASGSIFPYNAMGWYRQAPGKEREFVAAINLSGGSTNYADSVKGRFTISRDNAKNTVYLQMNSLKPEDTAVYYCNAPVDYFWPLNFDYWGQGTQVTVSS
- polyreactivity (PSR sort gate): low polyreactivity

Sequence: QVQLVESRGGLVQAGGSLRLSCAASGSIFYRYAMGWYRPAPWKERELVAAIRRGGSTNYADSVKGRFTISRDNAKNTVYLQMNSLKPEDTAVYYCAAGRFTYAAQRYEYWGQGTQVTVSS
- polyreactivity (PSR sort gate): high polyreactivity

Sequence: QVQLVESRGGLVQAGGSLRLSCAASGSTCFTNDMGWYRQAPGTERELVASISPSTGSTYYADSVKGRVTISRDNAKNTVSLQMNSLKPDDTAVYYCAADEWYYSYNDGNLYDYWGQGTQVTVSS
- polyreactivity (PSR sort gate): low polyreactivity

Sequence: QVQLVESRGGLVQAGGSLRLSCAASGSTFFRYAMGWYRQAPGKERELVAAITDSDGSTYYADSVKGRFTISRDNAKNTVYLQMNSLKPEDTAVYYCAAAHPDGWTVYNPQGGAWYDYWGQGSQVTVSS
- polyreactivity (PSR sort gate): low polyreactivity

Sequence: QVQLVESRGGLVQAGGSLRLSCAASGSTFKPNAMGWYRPAPGKERELVAAITSGSTYYADSVKGRFTISRDNAKNTVYLQMNSLKPEDTAVYYCATSFRGKSPYRNSGSYYYWGQGTQVTVSS
- polyreactivity (PSR sort gate): high polyreactivity

Sequence: QVQLVESRGGLVQAGGSLRLSCAASGSTFRTYAMGWYRQAPGKERELVADITWRGGSTYYADSVKGRFTISRDNAKNTVYLQMNSLKPEDTAVYYCATDRGPEVVLYDYWGQGTQVTVSS
- polyreactivity (PSR sort gate): low polyreactivity

Sequence: QVQLVESRGGLVQAGGSLRLSCAASGSTFSVYAMGWYRQAPGKERELVADITRGGSTYADSVTGRFTISRDNAKNTVYLQMNSLKPEDTAVDYCARAEVTPYPLYWSTREYDYWGQGTQVTVSS
- polyreactivity (PSR sort gate): low polyreactivity

Sequence: QVQLVESRGGLVQAGGSLRLSCAASGSTFYAYAMGWYRQAPGKERDLVAAISSSGGSTYYADSVKGRFTISRDNAKNTVYLQMNSLKTEDTAVYYCAAYDSVQKYWILGFDYWGQGTQVTVSS
- polyreactivity (PSR sort gate): low polyreactivity

Sequence: QVQLVESRGGLVQAGGSLRLSCAASGSTILQYAMGWYRQAPGNERELVAAIRFSTGTTYYADSVKGRFTISRDTANNTVYLQMNSLKPEDTAVYYCAALARTRGRKYGYWGHGTQVTVSS
- polyreactivity (PSR sort gate): high polyreactivity

Sequence: QVQLVESRGGLVQAGGSLRLSCAASGSTSRTYAMGWYRQAPGKEMELVAAISSSGGRTYYADSVKGRFTISRDNAKNTVYLLMNSLKPEDTAVYYCNARTYSYRGYNYWGQGTQVTVSS
- polyreactivity (PSR sort gate): high polyreactivity

Sequence: QVQLVESRGGLVQAGGSLRLSCSASGLTIWRYAMGWYRHEPGKEWEFVATISQNGGRTYYADSVKGRFTISRDNAKNTVYLQMNSLKPEDTAVYYCAADDWRWGYDYWGQGTQVTVSS
- polyreactivity (PSR sort gate): high polyreactivity
